Where two headings read alike, the source gives them in different places.
Legend:
[1] = molecular target: huCD47-D1-his (recombinant human CD47 extracellular region D1 with C-terminal His tag) (human (homo sapiens)) (UniProt Q08722); test: SPR BIAcore, against hS2C3 as reference
[2] = molecular target: hCD47-mFc (human CD47 extracellular region D1 fused to mouse IgG2a Fc) (human (homo sapiens)); test: competition ELISA by the method of Example 3 (hCD47-mFc coated, hCD172a-D1M1-His as competitor)
[3] = molecular target: hCD47-mFc (human CD47 extracellular region D1 fused to mouse IgG2a Fc) (human (homo sapiens)); test: as above; remark: listed apart in the source
[4] = molecular target: hCD47 mutant E35A (human (homo sapiens)) (UniProt Q08722); test: SPR BIAcore, against natural hCD47 as reference
[5] = molecular target: hCD47 mutant Q1A (human (homo sapiens)) (UniProt Q08722); test: SPR BIAcore, against natural hCD47 as reference
[6] = molecular target: huCD47-D1-his (recombinant human CD47 extracellular region D1 with C-terminal His tag) (human (homo sapiens)) (UniProt Q08722); test: SPR BIAcore, by the method of Example 3 (antibody captured, huCD47-D1-his analyte)

Binder | fold improvement of affinity over hS2C3 [1] [fold] | IC50 [2] [nM] | IC50 [3] [nM] | fold increase of affinity against natural hCD47 [4] [fold] | fold decrease of affinity against natural hCD47 [5] [fold] | Kd [6] [nM] | koff [6] [s⁻¹] | kon [6] [M⁻¹ s⁻¹]
H10C7+L26A6 (affinity-matured variant of hS2C3) (antibody, part only; not given: constant regions, V domains shown, part only) VH: QVQLVQSGAEVKKPGASVKVSCKASGYTFTDYYMHWVRQAPGQRLEWMGWIYPGSGNTRYSQKFKDRVTMTRDTSTSTVYMELSSLRSEDTAVYYCARREEDYFDYWGQGTLVTVSS | 5 | 4.25 | < 5 | 4 | 100 | 2.32 | 0.00193 | 833000
H11E5+L26A6 (affinity-matured variant of hS2C3) (antibody, part only; not given: constant regions, V domains shown, part only) VH: QVQLVQSGAEVKKPGASVKVSCKASGYTFTDYYMHWVRQAPGQRLEWMGWIYPSSGNTKYAQKFKDRVTMTRDTSTSTVYMELSSLRSEDTAVYYCARREEDYFDYWGQGTLVTVSS |  | 3.52 | < 5 |  |  | 1.83 | 0.0017 | 930000

Source: patent CN108503708A
